B1: Rab11/Ypt32-7xHis (natural protein, S. cerevisiae, UniProt P51996 1-220, looked up)
chain: MSNEDYGYDYDYLFKIVLIGDSGVGKSNLLSRFTTDEFNIESKSTIGVEFATRTIEVENKKIKAQIWDTAGQERYRAITSAYYRGAVGALIVYDISKSSSYENCNHWLTELRENADDNVAVGLIGNKSDLAHLRAVPTDEAKNFAMENQMLFTETSALNSDNVDKAFRELIVAIFQMVSKHQVDLSGSGTNNMGSNGAPKGPTISLTPAPKEDKKKKSSN
notes: Ypt32 (yeast Rab11 paralog), S. cerevisiae; the C-terminal cysteines (residues 221 and 222) were substituted with the 7xHis tag; Made nucleotide-free with calf intestine alkaline phosphatase for the complex with TRAPPII; also called nucleotide-free Rab11/Ypt32; not shown: GST, N-terminal, cleaved; 7xHis, C-terminal, kept

Experiments:
Test in all cases: cryo-EM structure; TRAPPII purified from yeast, incubated with tenfold molar excess of Rab11/Ypt32-7xHis and calf intestine alkaline phosphatase at 4°C overnight (nucleotide-free Rab), complex purified on Calmodulin Sepharose and by SEC; 10 mM tris (pH 8.0), 150 mM NaCl, 0.1% CHAPS, 1 mM Mg acetate, 1 mM dithiothreitol; single-particle cryo-EM
Conditions in all cases: both partners purified
[1] = molecular target: B1
[2] = molecular target: T1, Trs31 (TRAPP core subunit, in purified TRAPPII) (S. cerevisiae, UniProt Q03337 1-283)
T1 construct: Trs31, S. cerevisiae, endogenous; source: endogenous, purified from S. cerevisiae as a subunit of TRAPPII
T1 sequence (looked up): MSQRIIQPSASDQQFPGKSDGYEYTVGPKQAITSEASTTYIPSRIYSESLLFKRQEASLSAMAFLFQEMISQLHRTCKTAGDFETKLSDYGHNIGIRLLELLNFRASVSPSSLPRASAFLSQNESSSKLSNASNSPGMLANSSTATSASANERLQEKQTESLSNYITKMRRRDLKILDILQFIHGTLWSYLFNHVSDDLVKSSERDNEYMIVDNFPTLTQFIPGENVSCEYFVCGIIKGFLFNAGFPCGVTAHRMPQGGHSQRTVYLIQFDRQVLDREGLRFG

[3] = molecular target: T2, Trs120 (TRAPPII-specific subunit, in purified TRAPPII) (S. cerevisiae, UniProt Q04183 1-1289)
T2 construct: Trs120, S. cerevisiae, endogenous; also called Trs120 lid; source: endogenous, purified from S. cerevisiae as a subunit of TRAPPII
T2 sequence (looked up): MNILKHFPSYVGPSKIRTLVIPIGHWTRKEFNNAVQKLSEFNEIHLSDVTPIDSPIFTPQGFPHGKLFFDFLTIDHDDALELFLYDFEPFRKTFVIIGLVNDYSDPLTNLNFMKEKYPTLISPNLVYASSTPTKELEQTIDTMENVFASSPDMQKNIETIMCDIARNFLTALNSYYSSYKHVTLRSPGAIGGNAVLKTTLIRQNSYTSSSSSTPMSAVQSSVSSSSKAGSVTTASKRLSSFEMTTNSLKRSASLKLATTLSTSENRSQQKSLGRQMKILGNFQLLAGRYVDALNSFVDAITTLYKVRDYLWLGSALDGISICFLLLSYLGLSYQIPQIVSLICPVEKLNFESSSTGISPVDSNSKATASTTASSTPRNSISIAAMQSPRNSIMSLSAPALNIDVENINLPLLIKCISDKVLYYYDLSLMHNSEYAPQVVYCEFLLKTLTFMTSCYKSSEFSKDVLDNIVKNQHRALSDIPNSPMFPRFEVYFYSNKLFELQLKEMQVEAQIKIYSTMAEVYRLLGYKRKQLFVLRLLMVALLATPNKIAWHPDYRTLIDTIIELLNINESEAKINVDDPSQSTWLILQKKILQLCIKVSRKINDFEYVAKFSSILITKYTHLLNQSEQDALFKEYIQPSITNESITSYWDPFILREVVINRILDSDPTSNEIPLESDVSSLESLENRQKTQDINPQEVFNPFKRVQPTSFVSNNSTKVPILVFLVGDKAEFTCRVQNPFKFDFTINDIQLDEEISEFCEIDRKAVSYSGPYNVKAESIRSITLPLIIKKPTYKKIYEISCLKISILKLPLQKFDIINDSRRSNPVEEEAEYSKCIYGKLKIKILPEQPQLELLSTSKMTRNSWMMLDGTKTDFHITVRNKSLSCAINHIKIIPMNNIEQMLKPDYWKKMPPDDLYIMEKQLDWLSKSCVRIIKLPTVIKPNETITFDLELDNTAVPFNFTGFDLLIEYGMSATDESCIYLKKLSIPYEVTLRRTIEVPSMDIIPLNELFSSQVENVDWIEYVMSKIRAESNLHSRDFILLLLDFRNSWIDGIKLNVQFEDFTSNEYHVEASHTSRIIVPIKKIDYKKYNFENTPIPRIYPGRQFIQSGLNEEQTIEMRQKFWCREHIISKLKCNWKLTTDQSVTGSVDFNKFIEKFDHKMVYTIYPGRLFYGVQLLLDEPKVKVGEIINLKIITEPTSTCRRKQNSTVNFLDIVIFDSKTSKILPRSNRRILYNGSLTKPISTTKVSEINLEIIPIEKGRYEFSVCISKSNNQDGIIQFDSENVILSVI

Binder	binding result [1]	binding result [2]	binding result [3]
Bet3 (TRAPP core subunit, in purified TRAPPII) (natural protein, S. cerevisiae, UniProt P36149 1-193, looked up, Bet3, S. cerevisiae, endogenous; source: endogenous, purified from S. cerevisiae as a subunit of TRAPPII) MVSTTQSRSLKAMGEEIWKNKTEKINTELFTLTYGSIVAQLCQDYERDFNKVNDHLYSMGYNIGCRLIEDFLARTALPRCENLVKTSEVLSKCAFKIFLNITPNITNWSHNKDTFSLILDENPLADFVELPMDAMKSLWYSNILCGVLKGSLEMVQLDCDVWFVSDILRGDSQTEIKVKLNRILKDEIPIGED	binds	–	–
B1	–	binds	binds
Bet5 (TRAPP core subunit, in purified TRAPPII) (natural protein, S. cerevisiae, UniProt Q03630 1-159, looked up, Bet5, S. cerevisiae, endogenous; source: endogenous, purified from S. cerevisiae as a subunit of TRAPPII) MGIYSFWIFDRHCNCIFDREWTLASNSASGTINSKQNEEDAKLLYGMIFSLRSITQKLSKGSVKNDIRSISTGKYRVHTYCTASGLWFVLLSDFKQQSYTQVLQYIYSHIYVKYVSNNLLSPYDFAENENEMRGQGTRKITNRNFISVLESFLAPMVNQ	binds	–	–
Trs23 (TRAPP core subunit, in purified TRAPPII) (natural protein, S. cerevisiae, UniProt Q03784 1-219, looked up, Trs23, S. cerevisiae, endogenous; source: endogenous, purified from S. cerevisiae as a subunit of TRAPPII) MAIETILVINKSGGLIYQRNFTNDEQKLNSNEYLILASTLHGVFAIASQLTPKALQLTQQTNIENTIPYIPYVGMSSNRSDTRNGGGNNNKHTNNEKLGSFKGDDFFKEPFTNWNKSGLRQLCTDQFTMFIYQTLTGLKFVAISSSVMPQRQPTIATTDKPDRPKSTSNLAIQIADNFLRKVYCLYSDYVMKDPSYSMEMPIRSNLFDEKVKKMVENLQ	binds	–	–
Trs20 (TRAPP core subunit, in purified TRAPPII) (natural protein, S. cerevisiae, UniProt P38334 1-175, looked up, Trs20, S. cerevisiae, endogenous; source: endogenous, purified from S. cerevisiae as a subunit of TRAPPII) MPQYFAIIGKKDNPVYEIEFTNAENPQGFPQDLKELNPFILHASLDIVEDLQWQINPTSQLNGNGGNGSNGGGGFLRSRAVNNTDNCYLGKVDHFYGLAITAYISYSGMKFVMIHGNSANSSVVIDDNNMRSFYQEVHELYVKTLMNPFYKITDPIRSPAFDSRVRTLARKHLSK	–	–	binds
